Patent US8133978 (GlaxoSmithKline, dated 2012)

Tests used:
[1] = biological target: T1, Human interleukin-18 (recombinant human IL-18) (human, UniProt Q14116 37-193); assay: cell-based or functional assay
T1 sequence: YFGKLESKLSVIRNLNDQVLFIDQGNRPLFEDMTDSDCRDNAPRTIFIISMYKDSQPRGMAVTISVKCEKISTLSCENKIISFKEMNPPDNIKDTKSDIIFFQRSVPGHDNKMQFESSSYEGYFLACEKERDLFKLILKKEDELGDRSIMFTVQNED

[2] = biological target: T1, Human interleukin-18 (recombinant human …); assay: SPR, Biacore T100, antibody captured on Protein A, 20 C
Method: (§1) The methodology was basically the same as for the method used in Example 4a above; Protein A was immobilised on a CM5 chip at densities of between 2000-6000 RU's by primary amine coupling. Runs were carried out in HBS-EP (Biacore™). The anti-IL-18 antibodies were captured to densities of between 100-500 RUs, human IL-18 was passed over this captured surface at concentrations between 16-0.0625 nM, with 0 nM concentration (i.e., a buffer only injection of captured antibody) used for double referencing. Regeneration after each injection of IL-18 was by mild acidic elution using two injections of 10 mM glycine, pH1.5. […] The binding curves obtained were analysed using the analysis software inherent to the T100 machine using the 1:1 model of binding. Runs were carried out at the temperatures indicated.
(§2) This experiment was carried out using the above method at various temperatures. […] Table 5 details the kinetic values used to create these figures.

[3] = biological target: T1, Human interleukin-18 (recombinant human …); assay: SPR, Biacore T100, Protein A capture, 37 C, mean n = 6
Method: as §1
These experiments were carried out as described above. Table 6 details the kinetic parameters obtained. […] H1L2 has a better on-rate (ka) than H1L1.

Rhesus IL-18 [4] = biological target: T2, Rhesus IL-18 (rhesus (rhesus/cynomolgus)); assay: SPR, Biacore 3000, antibody captured on Protein A, 25 C
T2 construct: also called Rhesus/Cynomolgus IL-18; rhesus/cynomolgus IL-18
Method: (§3) Biacore™ kinetic analysis of the humanised 2C10 antibodies was carried out on a Biacore™ 3000 instrument using Protein A capture of the antibodies in HBS-EP buffer (Biacore™). Briefly, Protein A was immobilised on a CM5 chip by primary amine coupling, using manufacturers recommended protocol, to densities around 2000-4000 resonance units (RU's). Humanised antibody was then passed over the Protein A surface and captured to levels of around 200-500 RU's, after a period of stabilisation, IL-18 (human or Rhesus) was passed over the captured antibody surface at defined concentrations and binding sensorgrams were obtained. […] All curves were double referenced against a buffer injection instead of IL-18 and the data was fitted to the 1:1 binding model using the global fit parameters in BiaEval 4.1. Off-rate ranking experiments were set up using the same Protein A capture method, however, only a single concentration of IL-18 was used (10 nM). Whilst the data was fitted using the same binding model as the kinetic analysis, since only one concentration of analyte was used on the off-rate is reported, this value is useful for ranking rather than giving an exact kinetic measurement and was used as a way of selecting which antibodies would be further investigated.
Based upon these observations selected antibodies were investigated in greater detail for binding to human and Rhesus IL-18 at 37° C. The data shown in Table 4b for human IL-18 is the mean (and standard deviation) of six separate determinations.

[5] = biological target: T1, Human interleukin-18 (recombinant human …); assay: ELISA, human IL-18 captured by 16D10, antibody titrated
Method: ELISA with all nine humanised variants was carried out at least 6 times using various batches of purified antibody preparation. FIGS. 4A-4C show representative data from one experiment which generated the EC50 value ranking illustrated in Table 7. Human IL-18 was immobilized on Nunc Maxisorp 96-well plates using 2.5 µg/ml of 16D10 (non-neutralising mouse monoclonal antibody) to capture 5 ng/ml of recombinant human IL-18. Anti-IL-18 humanised antibodies were added at various dilutions. Bound humanised antibodies were detected using anti-human IgG Fc specific peroxidase conjugate (Sigma A0170).

[6] = biological target: T1, Human interleukin-18 (recombinant human …); assay: SPR, Biacore T100, antibody captured on Protein A, 32 C
Method: as §1, §2

[7] = biological target: T1, Human interleukin-18 (recombinant human …); assay: ELISA, IL-18 bp-Fc coated at 0.5 ug/ml, human IL-18 added at 100 ng/ml, antibody titrated, detection anti-human kappa HRP, Abs 490 nm
[8] = biological target: T1, Human interleukin-18 (recombinant human …); assay: SPR, Biacore 3000, antibody captured on Protein A, 25 C
Method: as §3, with “investigated. […]” for “investigated.”

Rhesus IL-18 [9] = biological target: T2, Rhesus IL-18; assay: Rhesus IL18 binding ELISA, antibody titrated, OD 490 nm
[10] = biological target: T1, Human interleukin-18 (recombinant human …); assay: SPR, Biacore T100, antibody captured on Protein A, 25 C
Method: as §1, §2

% change vs 2C10 (IC50, KG-1 bioassay) [1]: 61.5%
Kd [2]: 0.0089 nM
Kd [3]: 0.046 nM
Kd (Rhesus IL-18 [4]): 0.108 nM
EC50 [5]: 0.011 µg/mL
Kd [6]: 0.0189 nM
EC50 (read off the curve) [7]: ~0.04 µg/mL
Kd [8]: 0.0303 nM
EC50 (read off the curve) (Rhesus IL-18 [9]): ~0.03 µg/mL
Kd [10]: 0.0125 nM
B1: H1L2 humanised anti-IL-18 antibody (antibody, human IgG1, kappa, V domains shown)
VH: QVQLVQSGAEVKKPGASVKVSCKVSGEISTGYYFHWVRQAPGKGLEWMGRIDPEDDSTKYAERFKDRVTMTEDTSTDTAYMELSSLRSEDTAVYYCTTWRIYRDSSGRPFYVMDAWGQGTLVTVSS
VL: DIQMTQSPSSVSASVGDRVTITCLASEDIYTYLTWYQQKPGKAPKLLIYGANKLQDGVPSRFSGSGSGTDYTLTISSLQPEDFATYYCLQGSKFPLTFGQGTKLEIKR
notes: Human IgG1 / kappa
